In doi:10.1101/2021.05.06.442907:

Molecular target: actin filaments (UniProt P68135)

Vmax of actin-activated ATPase activity, 25 °C (Pi s^−1 head^−1): 410
Substance: Chara braunii myosin XI-1 motor domain construct without IQ motifs (domain or fragment)
